Experimental findings from US20160160263 are described below.

Data set [1] concerns T1, YGRAAA (SEQ ID NO: 17), uPA selective substrate.
T1 sequence: YGRAAA

Data set [2] has as its system SNPYK-Y (SEQ ID NO: 21), MMP9 selective substrate.
Data set [3] has as its system SNPYG-Y (SEQ ID NO: 23), MMP9 selective substrate.
Data set [4] deals with TIAH/LH, MMP2 selective substrate.
Data set [5] concerns RS-Q-G-(homoF)-YLY (SEQ ID NO: 71).

Sequence of MMP-9 (chain, as listed by the source): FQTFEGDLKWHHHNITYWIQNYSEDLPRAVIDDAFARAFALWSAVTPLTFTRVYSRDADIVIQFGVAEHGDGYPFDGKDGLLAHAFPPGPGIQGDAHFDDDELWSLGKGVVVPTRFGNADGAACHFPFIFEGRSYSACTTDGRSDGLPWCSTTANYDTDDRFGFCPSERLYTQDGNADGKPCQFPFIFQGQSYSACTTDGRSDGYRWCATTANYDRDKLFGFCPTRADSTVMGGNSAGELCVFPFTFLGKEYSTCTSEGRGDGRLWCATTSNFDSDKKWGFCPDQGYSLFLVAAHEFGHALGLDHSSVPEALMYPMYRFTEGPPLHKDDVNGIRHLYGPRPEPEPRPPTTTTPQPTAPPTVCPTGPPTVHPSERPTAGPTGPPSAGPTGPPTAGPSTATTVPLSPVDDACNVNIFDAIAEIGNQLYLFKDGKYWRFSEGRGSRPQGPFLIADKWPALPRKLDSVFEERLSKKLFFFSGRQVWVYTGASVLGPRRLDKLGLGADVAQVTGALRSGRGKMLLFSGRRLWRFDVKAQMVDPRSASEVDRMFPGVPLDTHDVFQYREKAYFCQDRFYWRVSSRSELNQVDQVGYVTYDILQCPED

As for urokinase plasminogen activator (uPA), the “cleavage of ACPP substrate by protease” value in data set [1] is on record as “efficiently cleaved by uPA”. MMP-9: the “cleavage of ACPP substrate by protease (FAM/Cy5 ratiometric RACPP)” value in data set [2] and in data set [3] was “MMP9 selective substrates” each time. Besides, in data set [4], the “cleavage of ACPP substrate by protease” value was “selectively cleaved by MMP-2 versus 9 and 14”.

Consider MT2-MMP, for which the “cleavage of substrate by protease” value in data set [5] was “Only RS-Q-G-(homoF)-YLY (SEQ ID NO: 71) shows significant cleavage by MT2-MMP”.
